Experimental data reported in the supplement of paper PMC7877785.
± gives the uncertainty stated by the source.

Test: self-splicing fitness, log relative to wild type (ln ratio); higher = more splicing; Tetrahymena group I intron in knt gene, E. coli kanamycin selection, DiMSum; sequences stand for … in CUCUCU…GGAGGGAAAAGUUAUCAGGCAUGCACCUGGUAGCUAGUCUUUAAACCAAUAGAUUGCAUCGGUUUAAAAGGCAAGACCGUCAAAUUGCGGGAAAGGGGUCAACAGCCGUUCAGUACCAAGUCUCAGGGGAAACUUUGAGAUGGCCUUGCAAAGGGUAUGGUAAUAAGCUGACGGACAUGGUCCUAACCACGCAGCCAAGUCCUAAGUCAACAGAUCUUCUGUUGAUAUGGAUGCAGUUCACAGACUAAAUGUCGGUCGGGGAAGAUGUAUUCUUCUCAUAAGAUAUAGUCGGACCUCUCCUUAAUGGGAGCUAGCGGAUGAAGUGAUGCAACACUGGAGCCGCUGGGAACUAAUUUGUAUGCGAAAGUAUAUUGAUUAGUUUUGGAGUACUCGUGGUCG
In short: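 Library with all eight P1ex-region intron nucleotides randomised, intron inside the knt kanamycin-resistance gene on pET-22b(+), in E. coli BL21(DE3). Cells grew overnight at 37°C or 30°C on LB agar with or without 25 μg/mL kanamycin (plus 100 μg/mL carbenicillin, 50 μM IPTG, 0.2% rhamnose), in six replicate transformations. Pooled colonies were amplicon-sequenced on Illumina HiSeq 2500. DiMSum fitness is the error-weighted combination of wild-type-normalised replicate fold changes, kanamycin versus none.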

Sequence	self-splicing fitness (ln) (37 °C)	self-splicing fitness (ln) (30 °C)
CUACAGCAAUAUUACGUGCU	-2 ± 0.13	
CUACAGCAAUAUUACGUGUC	-2.73 ± 0.15	-3.95 ± 0.14
CUAGAGCAAUAUUACGACGA	-1.36 ± 0.13	-3.35 ± 0.13
CUAGAGCAAUAUUACGACGU	-0.837 ± 0.26	-3.28 ± 0.3
CUAGAGCAAUAUUACGACUU	-2.51 ± 0.25	-4.26 ± 0.27
CUAGAGCAAUAUUACGAGAA	-2.5 ± 0.45	-2.62 ± 0.35
CUAGAGCAAUAUUACGAGAG	-0.393 ± 0.099	-0.641 ± 0.071
CUAGAGCAAUAUUACGAUGU	-2.2 ± 0.31	-3.45 ± 0.3
CUAGAGCAAUAUUACGCACC		-2.44 ± 0.41
CUAGAGCAAUAUUACGCAUA	-2.93 ± 0.4	-2.97 ± 0.27
CUAGAGCAAUAUUACGCCUG	0.825 ± 0.12	-0.0979 ± 0.087
CUAGAGCAAUAUUACGCUGC	-2.33 ± 0.33	-3.8 ± 0.33
CUAGAGCAAUAUUACGCUUC	-1.97 ± 0.3	-2.21 ± 0.42
CUAGAGCAAUAUUACGGACG	0.427 ± 0.097	0.0877 ± 0.07
CUAGAGCAAUAUUACGGCUU	-1.94 ± 0.26	-2.92 ± 0.24
CUAGAGCAAUAUUACGGGCC	-1.76 ± 0.34	-2.86 ± 0.34
CUAGAGCAAUAUUACGGUAU	-1.76 ± 0.49	
CUAGAGCAAUAUUACGUAGA	-1.5 ± 0.15	-3.37 ± 0.16
CUAGAGCAAUAUUACGUCUU	-2.27 ± 0.22	-3.52 ± 0.18
CUAUAGCAAUAUUACGACCG	0.785 ± 0.27	0.239 ± 0.18

Sequence	self-splicing fitness (ln) (37 °C)	self-splicing fitness (ln) (30 °C)
CUAUAGCAAUAUUACGAGCU		-1.79 ± 0.48
CUAUAGCAAUAUUACGAUUG	0.313 ± 0.13	-0.58 ± 0.097
CUAUAGCAAUAUUACGCGCC		-1.01 ± 0.43
CUAUAGCAAUAUUACGCUUU	-3.17 ± 0.28	-4.86 ± 0.45
CUAUAGCAAUAUUACGGAGA	-1.38 ± 0.33	-2.82 ± 0.3
CUAUAGCAAUAUUACGGCAG	-0.425 ± 0.13	-1.51 ± 0.13
CUAUAGCAAUAUUACGGGCC		-1.54 ± 0.36
CUAUAGCAAUAUUACGGGGU	-2.83 ± 0.28	-4.1 ± 0.2
CUAUAGCAAUAUUACGUAGG	-0.685 ± 0.13	-1.44 ± 0.085
CUCAAGCAAUAUUACGAAAC	-1.55 ± 0.17	-3.86 ± 0.32
CUCAAGCAAUAUUACGAAAU	-2.14 ± 0.17	-4.62 ± 0.46
CUCAAGCAAUAUUACGAACU	-1.27 ± 0.17	-3.03 ± 0.2
CUCAAGCAAUAUUACGAAUU	-3.03 ± 0.29	-4.18 ± 0.28
CUCAAGCAAUAUUACGACCU	-1.34 ± 0.17	-2.96 ± 0.15
CUCAAGCAAUAUUACGAGAU	-0.936 ± 0.12	-3.89 ± 0.2
CUCAAGCAAUAUUACGAGGA	-1.66 ± 0.13	-1.9 ± 0.13
CUCAAGCAAUAUUACGAGUG	-1.41 ± 0.086	-2.91 ± 0.11
CUCAAGCAAUAUUACGAUAG	-0.283 ± 0.1	-2 ± 0.1
CUCAAGCAAUAUUACGAUUC	-2.26 ± 0.24	-4.11 ± 0.27
CUCAAGCAAUAUUACGCAGC	-1.9 ± 0.44	-4.03 ± 0.43
